Assays:
[1] = target: A. eutrophus PHA synthase (Cupriavidus necator, UniProt P23608); conditions: read-out: apparent Km (substrate concentration at half-optimal velocity); enzyme 0.95 mg/ml; 40 or 200 μl assay volumes; FIG. 10
[2] = Storage stability of PHA synthase purified from insect cells; type: physicochemical
Description: Fraction collection tubes were prepared by addition of […] of 100 mM EDTA to provide a metalloprotease inhibitor at 1 mM immediately after HA chromatography. PHA synthase was eluted in a broad peak between 110-180 mM KPi. Fractions (3 ml) containing significant PHA synthase activity were pooled and stored at 0° C. until the entire soluble fraction had been run through the chromatographic process. Pooled fractions then were concentrated at 4° C. by use of a Centriprep-30 concentrator (Amicon) to 3.8 mg/ml. Aliquots (0.5 ml) were either flash frozen and stored in liquid N2 or glycerol was added to a final concentration of 50% and samples (1.9 mg/ml) were stored at −20° C.
PHA synthase purified from insect cells appears to be relatively stable.

[3] = target: the molecule itself; experiment: size exclusion chromatography of native protein (forms of about 100-160 kDa and 50-80 kDa)

Molecule	Km [1] [µM]	synthase activity remained ([2]; after 7 weeks stored at −20° C. in the presence of 50% glycerol)	synthase activity remained ([2]; after 7 weeks stored in liquid N2)	binding result [3]
3-hydroxybutyrate CoA [HBCoA]	2500			
A. eutrophus PHA synthase (phbC gene product) produced in insect cells with a baculovirus vector (enzyme, Alcaligenes eutrophus, UniProt P23608 7-589, looked up, Denatured on SDS-PAGE for the Western blots; Size exclusion chromatography used the native purified protein; also called PHB synthase; 64 kDa protein) AAASTQEGKSQPFKVTPGPFDPATWLEWSRQWQGTEGNGHAAASGIPGLDALAGVKIAPAQLGDIQQRYMKDFSALWQAMAEGKAEATGPLHDRRFAGDAWRTNLPYRFAAAFYLLNARALTELADAVEADAKTRQRIRFAISQWVDAMSPANFLATNPEAQRLLIESGGESLRAGVRNMMEDLTRGKISQTDESAFEVGRNVAVTEGAVVFENEYFQLLQYKPLTDKVHARPLLMVPPCINKYYILDLQPESSLVRHVVEQGHTVFLVSWRNPDASMAGSTWDDYIEHAAIRAIEVARDISGQDKINVLGFCVGGTIVSTALAVLAARGEHPAASVTLLTTLLDFADTGILDVFVDEGHVQLREATLGGGAGAPCALLRGLELANTFSFLRPNDLVWNYVVDNYLKGNTPVPFDLLFWNGDATNLPGPWYCWYLRHTYLQNELKVPGKLTVCGVPVDLASIDVPTYIYGSREDHIVPWTAAYASTALLANKLRFVLGASGHIAGVINPPAKNKRSHWTNDALPESPQQWLAGAIEHHGSWWPDWTAWLAGQAGAKRAAPANYGNARYRAIEPAPGRYVKAKA		approximately 75%	approximately 50%	binds

Reference: patent publication US20030073824A1, “DNA encoding methymycin and pikromycin” (priority 1999, published 2003)
